Data on 2 molecules can be found in patent publication US20250223353A1 (BIOTHEUS, published 2025).

Assay [1] concerns the target T1, human PVRIG on the cell surface (human, UniProt Q6DKI7 41-326).
T1 construct: whole, on cells; also called CHO-huPVRIG cells; human PVRIG protein overexpressed on the surface of CHO cells
T1 sequence (looked up): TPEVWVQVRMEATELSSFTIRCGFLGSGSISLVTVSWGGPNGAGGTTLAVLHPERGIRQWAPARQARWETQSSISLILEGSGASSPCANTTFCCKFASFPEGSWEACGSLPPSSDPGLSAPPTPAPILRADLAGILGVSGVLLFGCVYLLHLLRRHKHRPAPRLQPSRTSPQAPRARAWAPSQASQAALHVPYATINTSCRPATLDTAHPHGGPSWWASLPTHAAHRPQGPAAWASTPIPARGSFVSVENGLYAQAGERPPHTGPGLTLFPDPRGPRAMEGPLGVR
The assay is described as follows: flow cytometry on CHO-huPVRIG cells. As for the experimental part: (§1) The overexpressing cells were expanded and adjusted to an appropriate cell density, and added to a 96-well flow cytometry plate. After centrifugation, the cells were added with a gradiently diluted sample to be tested, and incubated at 4° C. for 30 minutes. The cells were washed twice with PBS, and added with a fluorescent secondary antibody correspondingly diluted to an appropriate concentration, then incubated at 4° C. for 30 minutes, and washed twice with PBS. Cells were resuspended with PBS, and detected on a CytoFlex flow cytometer, and the corresponding MFI was calculated. Graphpad software was used for graphical analysis to obtain EC50 values.
(In general: Flow cytometry measures light scatter and fluorescence of single cells or particles in a stream.)

Assay [2] addresses Biotin-labeled mouse PVRIG huFc protein (mouse). The assay is described as follows: competition ELISA: biotin mouse PVRIG huFc (2 ug/mL) binding to coated mouse CD112-his. As for the experimental part: Specifically, mouse CD112-his protein diluted with 1× coating buffer to a final concentration of 1 μg/mL was added to the ELISA plate at 100 μL/well, covered with the film, and coated overnight at 4° C. The coating solution in the ELISA plate was discarded, and the ELISA plate was washed three times with 1×PBST and was blocked with 5% BSA/PBS at 200 μL/well for 2 hours at room temperature. During the blocking period, the samples to be tested were gradient diluted with 1% BSA/PBS to a final volume of 60 μL/well. […] The above co-incubated samples were discarded, the ELISA plate was washed three times with 1×PBST, and SA-HRP diluted with 1% BSA/PBS was added at 100 μL/well and incubated for 1 hour at room temperature.
Background: ELISA stands for enzyme-linked immunosorbent assay.

The target of assay [3] is T2, human PVRIG protein with mouse IgG2a Fc tag (human, UniProt Q6DKI7 41-171, limits assumed).
T2 construct: not shown: mouse IgG2a Fc tag
T2 sequence (looked up): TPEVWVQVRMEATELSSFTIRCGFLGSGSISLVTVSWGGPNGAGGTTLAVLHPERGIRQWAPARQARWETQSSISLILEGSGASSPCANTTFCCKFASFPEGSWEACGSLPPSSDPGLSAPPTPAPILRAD
The assay is described as follows: flow cytometry competition: human PVRIG-mouse IgG2a Fc (1 ug/mL) binding to CHO-huCD112 cells. As for the experimental part:
Specifically, CHO cells overexpressing human CD112 (CHO-huCD112 cells) were generated by transfection of the pCHO1.0 vector (purchased from Invitrogen) with cDNA encoding human CD112 cloned into the multiple cloning site (MCS), followed by pressure screening. The CHO-huCD112 cells were expanded and adjusted to a cell density of 2×10^6 cells/mL, added to a 96-well flow plate at 100 μL/well, and centrifuged for later use. The purified monoclonal antibody was gradiently diluted with PBS and the diluted sample was added to a 96-well flow plate at 60 μL/well. […] The above incubated samples were added at 100 μL/well to the 96-well flow plate containing CHO-huCD112 cells, incubated at 4° C. for 30 min and washed twice with PBS. APC-conjugated goat anti-mouse IgG antibody diluted 100-fold with PBS was added at 100 μL/well, incubated at 4° C. for 30 minutes and washed twice with PBS. Cells were resuspended with PBS at 100 μL/well, and detected on a CytoFlex flow cytometer, and the corresponding MFI was calculated.

For assay [4], the target named is T3, cynomolgus PVRIG overexpressed on CHO cells (cynomolgus, UniProt A0A2K5WVV8 1-322).
T3 construct: whole, on cells; also called CHO-cynoPVRIG cells
T3 sequence: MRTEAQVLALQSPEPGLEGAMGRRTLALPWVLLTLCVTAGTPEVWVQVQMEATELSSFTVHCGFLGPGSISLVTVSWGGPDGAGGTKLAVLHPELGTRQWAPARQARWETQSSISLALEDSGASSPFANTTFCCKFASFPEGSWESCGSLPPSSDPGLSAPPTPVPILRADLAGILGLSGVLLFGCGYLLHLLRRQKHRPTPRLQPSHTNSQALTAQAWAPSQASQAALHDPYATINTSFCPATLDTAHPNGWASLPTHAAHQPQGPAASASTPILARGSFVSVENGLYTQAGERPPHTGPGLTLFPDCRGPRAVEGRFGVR
The assay can be described thus: flow cytometry on CHO-cynoPVRIG cells. As to the method:
as §1

Another assay addresses T4, mouse PVRIG-Fc protein (mouse).
T4 construct: not shown: Fc part
T4 chain: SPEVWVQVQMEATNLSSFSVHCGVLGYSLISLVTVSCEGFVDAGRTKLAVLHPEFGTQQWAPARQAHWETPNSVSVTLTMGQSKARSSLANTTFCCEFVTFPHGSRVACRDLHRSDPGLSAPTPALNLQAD
The assay is described as follows: BLI (ForteBio), PVRIG-Fc on AHQ sensor, 100 nM Fab in solution, monovalent, 1:1 model. As for the experimental part: (§2) Biofilm layer optical interference technology (ForteBio) was used to determine the binding and dissociation rate constant (KD) values of the antibodies and their variants or Fab fragments obtained in Example 1 to human, cynomolgus monkey and mouse PVRIG. ForteBio affinity measurement was performed according to existing methods (Este, P et al., High throughput solution-based measurement of antibody-antigen affinity and epitope binning. Mabs, 2013.5 (2): p270-8).
(§3) The antigen-loaded sensor was incubated in 100 nM Fab solution to the plateau phase, and then the sensor was transferred to an analysis buffer and incubated for at least 2 minutes for measuring dissociation rate. The kinetic analysis was performed using a 1:1 binding model.
On the technique in general: In BLI a coated tip is dipped into the sample, and binding shifts an interference pattern.

Another assay addresses T5, human PVRIG-Fc protein (human, UniProt Q6DKI7 41-171).
T5 construct: also called PVRIG-Fc antigen (human); not shown: Fc part
T5 sequence: T2 sequence (looked up)
The assay is described as above. As to the method: as §2, §3

In assay [5] the target is T6, cynomolgus monkey PVRIG-Fc protein (cynomolgus monkey, UniProt Q6DKI7 41-171 (human entry), limits assumed).
T6 construct: also called cynomolgus PVRIG-Fc protein; not shown: Fc part
T6 chain: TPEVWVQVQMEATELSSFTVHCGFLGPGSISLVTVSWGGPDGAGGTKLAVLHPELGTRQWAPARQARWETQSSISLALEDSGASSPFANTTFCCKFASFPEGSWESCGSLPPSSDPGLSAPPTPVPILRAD
The assay is described as above. As for the experimental part: as §2, §3

B1: ADI-56249-G1LALA (antibody, human IgG1, kappa, L234A L235A, V domains shown)
VH: QVQLVQSGAEVKKPGSSVKVSCKASGGTFSTFAISWVRQAPGQGLEWMGDIIPIFGSNYAQKFQGRVTITADESTSTAYMELSSLRSEDTAVYYCARGPLEGKVSPFDIWGQGTMVTVSS
VL: DIVMTQSPLSLPVTPGEPASISCRSSQSLLHSTGYNYLDWYLQKPGQSPQLLIYVGSTRASGVPDRFSGSGSGTDFTLKISRVEAEDVGVYYCMQERQFPITFGGGTKVEIKR
Consider B1, for which the EC50 in assay [1] was found to be 1.3 nM; in assay [4] it was 0.396 nM. Further, the figures for the IC50 in assay [2] and in assay [3] were 3.22 nM and 2.07 nM, respectively.

B2: ADI-56127 Fab fragment (Fab, V domains shown)
VH: QVQLVQSGAEVKKPGSSVKVSCKASGGTESVDAISWVRQAPGQGLEWMGDIIPFFDTDYAQKFQGRVTITADESTSTAYMELSSLRSEDTAVYYCAREGGTSWTHFFDLWGRGTLVTVSS
VL: not shown
notes: Fab made by papain digestion of the yeast full-length IgG, purified with Kappa Select
As for B2, the Kd in the assay with mouse PVRIG-Fc protein is 114 nM; with human PVRIG-Fc protein, 0.061 nM; in assay [5] it was 0.128 nM.

One may read the EC50 as the midpoint of the concentration-response curve. One may read the IC50 as the concentration needed to halve the response being measured. As usually defined, the Kd is the free concentration of one partner at which half of the binding sites on the other are occupied at equilibrium, for simple one-to-one binding.
